Data published in publication PMC3212559, “Large-Scale Protein-Protein Interaction Analysis in Arabidopsis Mesophyll Protoplasts by Split Firefly Luciferase Complementation” (PLoS ONE, 2011).

Legend:
Assay in all cases: split reporter (BiFC, NanoBiT); SFLC in living Arabidopsis mesophyll protoplasts: Aux/IAA-FLucN or MYB30-FLucN co-expressed with ARFCTD-FLucC or Aux/IAA-FLucC for 6 hr; 10 µg of each construct, 2×10^4 cells, 96-well plate, D-luciferin; relative activity standardised against ARF5CTD-FLucC + IAA28-FLucN
Conditions in all cases: partners not purified
IAA19-FLucC = molecular target: T1, IAA19-FLucC (Arabidopsis, UniProt O24409 1-197)
T1 construct: Arabidopsis Aux/IAA protein IAA19; also called Aux/IAA-FLucC; source: Arabidopsis mesophyll protoplasts, transfected, in living cells; not shown: FLucC (firefly luciferase aa 394-550)
T1 sequence (looked up): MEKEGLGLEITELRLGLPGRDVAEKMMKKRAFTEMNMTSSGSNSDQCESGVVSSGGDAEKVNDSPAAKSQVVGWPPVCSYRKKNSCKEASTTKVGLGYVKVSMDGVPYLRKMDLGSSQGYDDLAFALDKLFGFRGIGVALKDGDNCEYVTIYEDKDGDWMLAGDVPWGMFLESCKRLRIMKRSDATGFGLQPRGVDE

[1] = molecular target: T2, ARF18 C-terminal domain (CTD)-FLucC (Arabidopsis, UniProt Q9C5W9 489-602)
T2 construct: Arabidopsis auxin response factor 18, C-terminal dimerization domain (CTD); In the ARF-ARF tests the same CTD stood both as ARFCTD-FLucC and as ARFCTD-FLucN; one molecule for both; also called ARF18CTD-FLucC; ARFCTD-FLucC; source: Arabidopsis mesophyll protoplasts, transfected, in living cells; not shown: FLucC (firefly luciferase aa 394-550)
T2 sequence (looked up): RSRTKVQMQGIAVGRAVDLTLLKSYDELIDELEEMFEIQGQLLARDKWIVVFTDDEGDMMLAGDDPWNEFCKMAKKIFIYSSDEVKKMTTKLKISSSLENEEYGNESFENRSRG

[2] = molecular target: T3, ARF1 C-terminal domain (CTD)-FLucC (Arabidopsis, UniProt Q8L7G0 542-665)
T3 construct: Arabidopsis auxin response factor 1, C-terminal dimerization domain (CTD); In the ARF-ARF tests the same CTD stood both as ARFCTD-FLucC and as ARFCTD-FLucN (FLucN, firefly luciferase aa 1-398, in place of FLucC); one molecule for both; also called ARF1CTD-FLucC; ARFCTD-FLucC; source: Arabidopsis mesophyll protoplasts, transfected, in living cells (SFLC) and in lysate (co-IP); not shown: FLucC …
T3 sequence (looked up): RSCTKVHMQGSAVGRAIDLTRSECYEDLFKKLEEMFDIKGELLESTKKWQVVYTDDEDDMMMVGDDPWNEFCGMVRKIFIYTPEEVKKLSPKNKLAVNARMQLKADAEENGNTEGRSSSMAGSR

IAA7-FLucC = molecular target: T4, IAA7-FLucC (Arabidopsis, UniProt Q38825 1-243)
T4 construct: Arabidopsis Aux/IAA protein IAA7; also called Aux/IAA-FLucC; source: Arabidopsis mesophyll protoplasts, transfected, in living cells; not shown: FLucC (firefly luciferase aa 394-550)
T4 sequence (looked up): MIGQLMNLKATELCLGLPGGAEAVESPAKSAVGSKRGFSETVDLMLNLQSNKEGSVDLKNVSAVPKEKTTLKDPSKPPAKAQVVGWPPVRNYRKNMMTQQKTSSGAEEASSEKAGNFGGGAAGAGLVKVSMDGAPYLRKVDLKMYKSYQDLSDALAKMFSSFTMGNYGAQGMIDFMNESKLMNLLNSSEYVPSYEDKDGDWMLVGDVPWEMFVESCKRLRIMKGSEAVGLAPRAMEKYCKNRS

IAA17-FLucC = molecular target: T5, IAA17-FLucC (Arabidopsis, UniProt P93830 1-229)
T5 construct: Arabidopsis Aux/IAA protein IAA17; also called Aux/IAA-FLucC; source: Arabidopsis mesophyll protoplasts, transfected, in living cells; not shown: FLucC (firefly luciferase aa 394-550)
T5 sequence (P93830 whole entry, the tested form may be a part): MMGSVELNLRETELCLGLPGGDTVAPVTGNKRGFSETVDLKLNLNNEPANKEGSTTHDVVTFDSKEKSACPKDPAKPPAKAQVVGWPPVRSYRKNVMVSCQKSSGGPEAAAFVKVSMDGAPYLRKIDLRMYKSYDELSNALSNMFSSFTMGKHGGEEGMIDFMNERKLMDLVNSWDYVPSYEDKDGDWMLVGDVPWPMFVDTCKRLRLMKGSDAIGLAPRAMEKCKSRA

IAA9-FLucC = molecular target: T6, IAA9-FLucC (Arabidopsis, UniProt Q38827 1-338)
T6 construct: Arabidopsis Aux/IAA protein IAA9; also called Aux/IAA-FLucC; source: Arabidopsis mesophyll protoplasts, transfected, in living cells; not shown: FLucC (firefly luciferase aa 394-550)
T6 sequence (looked up): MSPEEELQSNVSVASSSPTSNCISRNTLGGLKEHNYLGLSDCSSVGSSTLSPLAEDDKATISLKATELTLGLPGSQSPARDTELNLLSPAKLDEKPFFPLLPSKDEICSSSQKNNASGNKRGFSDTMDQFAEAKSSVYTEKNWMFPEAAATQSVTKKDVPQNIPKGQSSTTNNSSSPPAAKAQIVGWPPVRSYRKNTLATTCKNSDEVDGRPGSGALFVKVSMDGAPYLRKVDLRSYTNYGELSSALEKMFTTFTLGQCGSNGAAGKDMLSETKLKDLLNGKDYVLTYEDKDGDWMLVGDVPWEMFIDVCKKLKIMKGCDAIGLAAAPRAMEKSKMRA

Measured: relative luciferase activity (standardised against ARF5CTD-FLucC + IAA28-FLucN)

B1: MYB30-FLucN (natural protein, UniProt Q9SCU7 1-323, looked up)
chain: MVRPPCCDKGGVKKGPWTPEEDIILVTYIQEHGPGNWRAVPTNTGLLRCSKSCRLRWTNYLRPGIKRGNFTEHEEKMIVHLQALLGNRWAAIASYLPQRTDNDIKNYWNTHLKKKLNKVNQDSHQELDRSSLSSSPSSSSANSNSNISRGQWERRLQTDIHLAKKALSEALSPAVAPIITSTVTTTSSSAESRRSTSSASGFLRTQETSTTYASSTENIAKLLKGWVKNSPKTQNSADQIASTEVKEVIKSDDGKECAGAFQSFSEFDHSYQQAGVSPDHETKPDITGCCSNQSQWSLFEKWLFEDSGGQIGDILLDENTNFF
notes: transcription factor MYB30, the unrelated protein used as negative control; source: Arabidopsis mesophyll protoplasts, transfected, in living cells; not shown: FLucN (firefly luciferase aa 1-398)
< 0.1: IAA19-FLucC | [1] | [2] | IAA7-FLucC | IAA17-FLucC | IAA9-FLucC
